This passage reports koff, kon and Kd results from patent publication EP4696312A1 (IMBIORAY (HANGZHOU) BIOMEDICINE CO., LTD., dated 2024).

The target in test [1] is T1, Rhesus macaque Trop2 (rhesus macaque, UniProt A0A5F8AGB8 27-274).
T1 construct: Recombinant protein loaded onto His-K biosensors
T1 sequence: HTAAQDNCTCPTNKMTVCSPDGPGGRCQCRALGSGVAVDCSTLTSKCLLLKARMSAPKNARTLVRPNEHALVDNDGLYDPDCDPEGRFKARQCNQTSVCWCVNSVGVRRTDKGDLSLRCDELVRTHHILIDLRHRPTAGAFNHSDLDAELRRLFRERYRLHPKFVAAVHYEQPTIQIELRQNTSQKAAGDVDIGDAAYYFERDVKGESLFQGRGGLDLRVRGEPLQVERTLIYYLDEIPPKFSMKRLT
In words: BLI (OctetR8), Trop2 on His-K probes, antibody in solution.

The target of test [2] is T2, Human Trop2 (human, UniProt P09758 27-274).
T2 construct: Recombinant protein loaded onto His-K biosensors; also called TACSTD2; EGP-1
T2 sequence (looked up): T1 sequence with V36M, N67S, V204I
The description is as above.

Changes are numbered by the printed parent chain.

B1: L2-conjugated antibody (anti-Trop2 monoclonal antibody conjugated to L2 linker) (antibody, human IgG1, V domains shown)
VH: EVQLVESGGGLVQPGGSLRLSCAASGFTFNNYAMSWVRQAPGKGLEWVSTISSDGTYTYYADSVKGRFTISRDNSKNTLYLQMNSLRAEDTAVYYCARHPPSYYYAFDYWGQGTTLTVSS
VL: EIVLTQSPGTLSLSPGERATLSCRASESVDSYGNSFIHWYQQKPGQAPRLLIYLASNLESGIPDRFSGSGSGTDFTLTISRLEPEDFAVYYCQQNNEDLWTFGGGTKLEIKA
modifications: L2 linker coupled to lysine residue(s); 1-4 (preferably 1-2) L2 linkers per antibody; chain and positions not stated; L2 linker (dibenzoazacyclooctyne-glutaryl-amino tetraethylene glycol-pentafluorophenyl acetylpiperidinate) coupled to lysine residue(s); 1-4 (preferably 1-2) L2 linkers per antibody; chain and positions not stated
notes: Each chain is the variable region followed by the constant region; also called IB12 (name of the expression plasmid)
In general, koff refers to the rate constant with which the complex falls apart. The term kon denotes a measure of how fast the partners come together. In general, Kd refers to the constant that tells how readily two partners part at equilibrium. The low end stands for tighter binding, the high end for weaker binding. Consider B1, for which, in test [1], the koff was less than 1e-07 s⁻¹ and the kon was determined as 569000 M⁻¹ s⁻¹. Moreover, in test [2], binding was characterised by a dissociation constant (Kd) of 22.6 nM, the koff is 0.0127 s⁻¹ and the kon is 564000 M⁻¹ s⁻¹.
